Measured values as given in patent US20160311887A1 (CAMBRIDGE ENTERPRISE, published 2016).

Experiments:
[1] = target: T1, activated Protein C (APC) (human, UniProt P04070 43-197; P04070 212-461); experiment: pseudo-first-order inhibition kinetics, residual chromogenic activity
T1 construct: also called human plasma APC

thrombin = thrombin (UniProt P00734 328-622); experiment: as above
fXa [2] = target: T2, fXa (UniProt P00742 41-179; P00742 235-488); experiment: as above
T2 construct: also called factor Xa

fXa [3] = target: T2, fXa; experiment: single-concentration estimate (FIG. 15)
Procedure: 1 μM serpin was incubated with 12.5 nM protease for different amounts of time. At the indicated timepoints, the reaction was stopped by addition of an excess of chromogenic substrate (S2238 for thrombin, S2222 for fXa). The residual enzyme activity was divided by the initial enzyme activity and the natural log of this value plotted against time. The slope of these plots is the observed rate constant, kobs. To obtain an estimate of the second-order rate constant k₂, kobs was divided by the serpin concentration. […] The mutants shown all have the Pitts (M358R, P1R) mutation.
Four additional mutants were identified from this additional screen. These all had the P1R mutation and in addition had either P2RP1′A, P2RP1′Q, P2WP1′I or P2WP1′H. To verify the specificity of these mutants, an initial experiment was performed, using only one concentration of serpin and testing its inhibition of thrombin and fXa. APC inhibition was not considered at this stage, because mutants were selected based on their low inhibition of thrombin and fXa. Serpin and protease were incubated for different times and at the indicated timepoints, the reaction was stopped by addition of an excess of chromogenic substrate. Residual protease activity was divided by the initial protease activity and the natural log of this value plotted against time (FIG. 15). The slope of this line divided by the serpin concentration gives an estimate of the second-order rate constant of inhibition.

T2 sequence (P00742 41-179 limits assumed, form in doubt, chain 1 of 2): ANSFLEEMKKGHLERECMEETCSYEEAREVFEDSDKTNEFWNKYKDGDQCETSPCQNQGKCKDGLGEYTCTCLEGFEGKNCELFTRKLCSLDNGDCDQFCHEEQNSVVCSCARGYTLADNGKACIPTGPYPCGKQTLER
T2 sequence (P00742 235-488 limits assumed, form in doubt, chain 2 of 2): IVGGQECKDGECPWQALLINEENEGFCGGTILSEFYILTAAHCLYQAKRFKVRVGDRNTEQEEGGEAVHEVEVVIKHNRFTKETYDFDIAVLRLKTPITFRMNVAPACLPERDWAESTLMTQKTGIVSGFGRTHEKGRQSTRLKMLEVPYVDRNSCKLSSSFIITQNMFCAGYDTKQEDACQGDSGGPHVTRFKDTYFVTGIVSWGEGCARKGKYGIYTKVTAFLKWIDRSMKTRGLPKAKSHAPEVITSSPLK
T1 sequence (P04070 43-197, chain 1 of 2): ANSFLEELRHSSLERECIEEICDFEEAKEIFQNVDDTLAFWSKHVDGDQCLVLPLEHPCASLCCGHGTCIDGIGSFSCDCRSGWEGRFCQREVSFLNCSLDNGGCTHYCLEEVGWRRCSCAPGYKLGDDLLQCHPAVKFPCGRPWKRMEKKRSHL
T1 sequence (P04070 212-461, chain 2 of 2): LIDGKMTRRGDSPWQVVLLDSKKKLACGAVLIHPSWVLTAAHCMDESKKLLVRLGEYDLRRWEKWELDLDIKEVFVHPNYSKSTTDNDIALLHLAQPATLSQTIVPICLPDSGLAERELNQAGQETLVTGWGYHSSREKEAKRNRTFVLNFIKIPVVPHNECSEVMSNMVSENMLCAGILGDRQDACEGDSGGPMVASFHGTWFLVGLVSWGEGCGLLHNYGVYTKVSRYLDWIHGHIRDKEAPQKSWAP

Row | second-order rate constant of inhibition [1] [M⁻¹ s⁻¹] | second-order rate constant of inhibition (thrombin) [M⁻¹ s⁻¹] | second-order rate constant of inhibition (fXa [2]) [M⁻¹ s⁻¹] | fold reduction of the second-order rate constant compared to FL α1AT Pitts C232S (fXa [3]) [fold] | Binder
1 | 9000 | 2.9 | 170 | – | FL α1AT Pitts C232S P2KP1′Q (other) SDPQGDAAQKTDTSHHDQDHPTFNKITPNLAEFAFSLYRQLAHQSNSTNIFFSPVSIATAFAMLSLGTKADTHDEILEGLNFNLTEIPEAQIHEGFQELLRTLNQPDSQLQLTTGNGLFLSEGLKLVDKFLEDVKKLYHSEAFTVNFGDTEEAKKQINDYVEKGTQGKIVDLVKELDRDTVFALVNYIFFKGKWERPFEVKDTEEEDFHVDQVTTVKVPMMKRLGMFNIQHSKKLSSWVLLMKYLGNATAIFFLPDEGKLQHLENELTHDIITKFLENEDRRSASLHLPKLSITGTYDLKSVLGQLGITKVFSNGADLSGVTEEAPLKLSKAVHKAVLTIDEKGTEAAGAMFLEAIKRQIPPEVKFNKPFVFLMIEQNTKSPLFMGKVVNPTQK
2 | – | – | – | ~10 | α1AT Pitts (P1R) mutant P2WP1′I (other) SDPQGDAAQKTDTSHHDQDHPTFNKITPNLAEFAFSLYRQLAHQSNSTNIFFSPVSIATAFAMLSLGTKADTHDEILEGLNFNLTEIPEAQIHEGFQELLRTLNQPDSQLQLTTGNGLFLSEGLKLVDKFLEDVKKLYHSEAFTVNFGDTEEAKKQINDYVEKGTQGKIVDLVKELDRDTVFALVNYIFFKGKWERPFEVKDTEEEDFHVDQVTTVKVPMMKRLGMFNIQHSKKLSSWVLLMKYLGNATAIFFLPDEGKLQHLENELTHDIITKFLENEDRRSASLHLPKLSITGTYDLKSVLGQLGITKVFSNGADLSGVTEEAPLKLSKAVHKAVLTIDEKGTEAAGAMFLEAIWRIIPPEVKFNKPFVFLMIEQNTKSPLFMGKVVNPTQK
3 | 8300 | 5.4 | 130 | – | FL α1AT Pitts C232S P2RP1′Q (other) SDPQGDAAQKTDTSHHDQDHPTFNKITPNLAEFAFSLYRQLAHQSNSTNIFFSPVSIATAFAMLSLGTKADTHDEILEGLNFNLTEIPEAQIHEGFQELLRTLNQPDSQLQLTTGNGLFLSEGLKLVDKFLEDVKKLYHSEAFTVNFGDTEEAKKQINDYVEKGTQGKIVDLVKELDRDTVFALVNYIFFKGKWERPFEVKDTEEEDFHVDQVTTVKVPMMKRLGMFNIQHSKKLSSWVLLMKYLGNATAIFFLPDEGKLQHLENELTHDIITKFLENEDRRSASLHLPKLSITGTYDLKSVLGQLGITKVFSNGADLSGVTEEAPLKLSKAVHKAVLTIDEKGTEAAGAMFLEAIRRQIPPEVKFNKPFVFLMIEQNTKSPLFMGKVVNPTQK
